We go through one substance from paper PMC2559947.

Assay [1] addresses C326A pea porphobilinogen synthase (pea (Pisum sativum)). The assay can be described thus: native gel or EMSA.
For assay [2] the target is unchanged. The assay can be described thus: AUC.
The target is the same in assay [3]. Put plainly: AUC. This is another data set of the same source.
The target is the same in assay [4]. Put plainly: AUC. The source holds these as a separate data set.

Several values for one entry are separate records, joined by “and”; a condition that tells them apart may be missing. Equal entries are not always repeated.

Consider “C326A pea porphobilinogen synthase (enzyme)”, for which the stoichiometry N (in general, a count of units in the complex or per binding partner) in assay [1] was 8; in assay [2], 8; in assay [3], 6 and 8; in assay [4], 8 and 6.
